Patent publication US20240352084A1

How the values were obtained:
Conditions in all cases: ligand
[1] = target: human IL-2Rα ectodomain (residues 1-217) with C-terminal biotin acceptor peptide and histidine tag, biotinylated (human) (UniProt P01589); assay: MST; pH 7
[2] = target: human IL-2Rα ectodomain (residues 1-217) with C-terminal biotin acceptor peptide and histidine tag, biotinylated (human) (UniProt P01589); assay: MST; pH 5
[3] = target: human IL-2Rα ectodomain (residues 1-217) with C-terminal biotin acceptor peptide and histidine tag, biotinylated (human) (UniProt P01589); assay: MST; pH 6

UniProt P01589, sequence (P01589 other isoform, or with tags, fused parts or gaps): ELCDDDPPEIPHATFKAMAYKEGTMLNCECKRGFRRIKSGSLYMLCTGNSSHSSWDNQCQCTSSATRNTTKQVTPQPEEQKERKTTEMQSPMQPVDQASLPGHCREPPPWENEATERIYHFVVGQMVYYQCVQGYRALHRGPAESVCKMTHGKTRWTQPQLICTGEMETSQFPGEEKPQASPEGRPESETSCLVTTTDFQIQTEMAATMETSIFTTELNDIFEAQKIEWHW

- Kd [1]: 7 nM
- Kd [2]: 184 nM
- Kd [3]: 90 nM
Substance: Human IL-2 wild-type (WT; residues 1-133), recombinant, C-terminal histidine tag (from UniProt P60568 21-150)
